System: C=C(OP(=O)(O)O)C(=O)O
Experiment: purified protein
Details: Hepes pH 8.0, 25 C, apparent

Sequence of PK (pyruvate kinase) (Oryctolagus cuniculus) (chain, as listed by the source): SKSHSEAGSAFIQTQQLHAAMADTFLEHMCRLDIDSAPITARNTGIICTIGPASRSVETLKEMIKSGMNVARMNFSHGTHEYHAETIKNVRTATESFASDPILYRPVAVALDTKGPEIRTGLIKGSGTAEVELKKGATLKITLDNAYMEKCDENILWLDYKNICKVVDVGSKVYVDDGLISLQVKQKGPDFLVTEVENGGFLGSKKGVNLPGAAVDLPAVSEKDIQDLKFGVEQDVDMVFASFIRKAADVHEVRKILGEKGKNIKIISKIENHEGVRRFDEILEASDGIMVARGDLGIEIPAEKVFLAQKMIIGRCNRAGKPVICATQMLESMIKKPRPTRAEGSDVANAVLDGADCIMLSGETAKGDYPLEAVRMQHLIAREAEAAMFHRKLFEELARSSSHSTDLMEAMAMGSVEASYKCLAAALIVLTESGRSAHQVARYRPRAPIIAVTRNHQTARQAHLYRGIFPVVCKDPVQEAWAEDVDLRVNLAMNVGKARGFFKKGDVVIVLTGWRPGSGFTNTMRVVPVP

Work on “PK (pyruvate kinase) (Oryctolagus cuniculus)” yielded a Km of 40 µM and a kcat of 160 s⁻¹.

Reference: paper PMC4143292, “An Enzymatic Platform for the Synthesis of Isoprenoid Precursors” (PLoS ONE, 2014)
